Source: article PMC9307952 (The Journal of Biological Chemistry, 2022)
Values belong to the binder of their own block, whether it stands above or below them.

Experiments:
[1] = molecular target: T1, E. coli LipBK135A/C169A (catalytically inactive double mutant of lipoate protein ligase B) (E. coli, UniProt P60720 1-213, K135A | C169A); assay: SPR; LipBK135A/C169A immobilised on an activated gold sensor surface (Autolab ESPRIT), increasing concentrations of ACP passed over; 20 mM sodium phosphate pH 8.0, 100 mM NaCl, 298 K; global fit of five injections, 1:1 Langmuir model; settings: both partners purified
[2] = molecular target: T1, E. coli LipBK135A/C169A (catalytically …); assay: SPR; apparent (binding curve did not reach saturation for holo-ACP); LipBK135A/C169A immobilised on an activated gold sensor surface (Autolab ESPRIT), increasing concentrations of ACP passed over; 20 mM sodium phosphate pH 8.0, 100 mM NaCl, 298 K; global fit of five injections, 1:1 Langmuir model; settings: both partners purified

Kd [1]: 36.4 µM
B1: E. coli C8-ACP (octanoyl-acyl carrier protein), SPR sample (natural protein)
chain: STIEERVKKIIGEQLGVKQEEVTNNASFVEDLGADSLDTVELVMALEEEFDTEIPDEEAEKITTVQAAIDYINGHQA
modifications: octanoyl (C8) chain on a 4'-phosphopantetheine arm (residue not stated)

Kd [2]: 2100 µM
B2: E. coli apo-ACP (unmodified acyl carrier protein), SPR sample (natural protein)
chain: B1 chain

Kd [2]: 100 µM
B3: E. coli holo-ACP (acyl carrier protein with 4'-phosphopantetheine), SPR sample (natural protein)
chain: B1 chain
modifications: 4'-phosphopantetheine arm (residue not stated)
